Measured values taken from patent publication US9234007B2, “RGD mimetic γ-AApeptides and methods of use” (UNIVERSITY OF SOUTH FLORIDA, priority 2012, dated 2016).

Key:
in vivo = test: in vivo; design: species or system mice; conditions: female, nude, mouse, iv, 10 mg/kg, total radioactivity
Description: (§1) PET scans at various time points post-injection (p.i.), as well as quantitative region-of-interest (ROI) analysis of the PET data, were performed as described previously.^14 Coronal and transaxial PET slices that contain the U87MG tumors are shown in FIG. 5A, and the quantitative data are shown in FIGS. 5B and 5C. […] PET scans were performed using an Inveon microPET/microCT rodent model scanner (Siemens Medical Solutions USA, Inc.). Each U87MG tumor-bearing mouse was injected with 5-10 MBq of the PET tracer via tail vein and 5 minute static PET scans were performed at various time points post-injection (p.i.). The images were reconstructed using a maximum a posteriori (MAP) algorithm, with no attenuation or scatter correction. For each microPET scan, three-dimensional (3D) regions-of-interest (ROIs) were drawn over the tumor and major organs by using vendor software (Inveon Research Workplace [IRW]) on decay-corrected whole-body images. Assuming a tissue density of 1 g/mL, the ROIs were converted to MBq/g using a conversion factor (pre-determined using a 20 mL centrifuge tube filled with ˜37 MBq of ^64CuCl2 as a phantom), and then divided by the total administered radioactivity to obtain an image ROI-derived percentage injected dose per gram of tissue (% ID/g).

integrin αvβ3 = test: in vivo; design: species or system mice; conditions: mouse, iv; for Liver uptake, blocking group / Radioactivity in the blood, blocking group / U87MG tumor uptake, blocking: 10 mg/kg
Description: as §1

In the case of `N=C(N)NCCC(=O)N(CC(=O)NCCN(CC(N)=O)C(=O)CC(=O)O)C[C@H](Cc1ccccc1)NC(=O)CCCCCNC(=O)CN1CCN(CC(=O)O)CCN(CC(=O)O)CCN(CC(=O)O)CC1` [^64Cu-γ-AA2, metal not drawn], the tissue uptake at 0.5 h (in vivo) is reported as 0.5 ± 0.1 %ID/g, the clearance route (integrin αvβ3) is reported as “both hepatobiliary and renal clearance” and the “Liver uptake, blocking group” value (integrin αvβ3; 0.5 h) is reported as 7.2±2.0 % ID/g. For the same compound, the “Liver uptake, blocking group” value (integrin αvβ3; 2 h) was 6.1±1.6 % ID/g, the “Radioactivity in the blood, blocking group” value (shortened to “Radioactivity in the blood”) (integrin αvβ3; 2 h) was 0.4±0.1 % ID/g and the “U87MG tumor uptake, blocking” value (integrin αvβ3; 2 h) was 0.4±0.1 % ID/g. The “Liver uptake, blocking group” value (integrin αvβ3; 4 h) was 5.3±1.3 % ID/g, the “Radioactivity in the blood” value (integrin αvβ3; 4 h) was 0.4±0.1 % ID/g and the “U87MG tumor uptake, blocking” value (integrin αvβ3; 4 h) was 0.4±0.1 % ID/g. For the same compound, the “Liver uptake, blocking group” value (integrin αvβ3; 24 h) was 4.0±0.6 % ID/g, the “Radioactivity in the blood” value (integrin αvβ3; 24 h) was 0.4±0.1 % ID/g and the “U87MG tumor uptake, blocking” value (integrin αvβ3; 24 h) was 0.4±0.1 % ID/g. The U87MG tumor uptake (integrin αvβ3; 0.5 h) was 0.9±0.3 % ID/g, the tumor/muscle ratio (integrin αvβ3; 0.5 h) was 3.8±0.9 and the U87MG tumor uptake (integrin αvβ3; 2 h) was 1.0±0.2 % ID/g. The tumor/muscle ratio (integrin αvβ3; 2 h) was 4.8±1.8, the U87MG tumor uptake (integrin αvβ3; 4 h) was 1.1±0.2 % ID/g and the tumor/muscle ratio (integrin αvβ3; 4 h) was 5.8±1.4. The U87MG tumor uptake (integrin αvβ3; 24 h) was 0.7±0.2 % ID/g and the tumor/muscle ratio (integrin αvβ3; 24 h) was 8.3±3.9.
